We go through one substance from patent US20230122364A1.

The target of test [1] is SARS-CoV S2Pecto antigen (SARS-CoV) (UniProt P59594). The test can be described thus: ELISA on coated SARS-CoV S2Pecto.
The target of test [2] is SRBD subdomain of SARS-CoV-2 S protein (SARS-CoV-2) (UniProt P0DTC2). Put plainly: ELISA on coated SRBD. A general note: An ELISA detects its analyte on a solid surface through an enzyme-linked reagent.

In the case of “rCR3022 (recombinant form of the cross-reactive SARS-CoV SRBD mAb CR3022) (antibody)”, the EC50 – broadly, the concentration that produces a half-maximal response – in test [1] came to 5.2 ng/mL; in test [2], 1.1 ng/mL.
